The values below are quoted from earlier work in publication PMC5700508.

This data set deals with transferrin receptor (Homo sapiens) (UniProt P02786).
transferrin receptor (Homo sapiens), sequence (P02786 101-760): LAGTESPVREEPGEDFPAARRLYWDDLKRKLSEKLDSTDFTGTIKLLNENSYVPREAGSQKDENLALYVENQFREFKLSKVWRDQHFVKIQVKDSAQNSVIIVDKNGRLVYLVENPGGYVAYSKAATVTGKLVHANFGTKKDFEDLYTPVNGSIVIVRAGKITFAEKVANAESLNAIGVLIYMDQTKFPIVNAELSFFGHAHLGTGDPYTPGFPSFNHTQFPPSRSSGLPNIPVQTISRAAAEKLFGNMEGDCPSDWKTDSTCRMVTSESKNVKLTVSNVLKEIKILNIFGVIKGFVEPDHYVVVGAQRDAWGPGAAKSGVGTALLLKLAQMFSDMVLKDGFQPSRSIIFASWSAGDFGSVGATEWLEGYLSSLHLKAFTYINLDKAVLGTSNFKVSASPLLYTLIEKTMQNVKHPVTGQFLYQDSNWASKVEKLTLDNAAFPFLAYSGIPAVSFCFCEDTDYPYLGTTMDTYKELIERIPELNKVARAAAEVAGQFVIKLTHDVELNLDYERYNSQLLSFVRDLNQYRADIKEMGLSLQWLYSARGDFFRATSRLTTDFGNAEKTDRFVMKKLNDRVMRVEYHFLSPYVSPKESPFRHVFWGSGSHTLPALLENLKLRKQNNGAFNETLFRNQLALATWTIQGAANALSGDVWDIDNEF

Consider T7 peptide, for which the dissociation constant (Kd) is 10 nM.

In general, Kd refers to the constant that tells how readily two partners part at equilibrium.
